Columns and labels:
SEC-SAXS = biological target: the molecule itself; assay: SEC-SAXS
[1] = biological target: human calmodulin (Ca^2+-CaM; apo-CaM in EDTA) (human, UniProt P0DP23 1-149); assay: SEC

binding result [1]: binds
B1: human P2X7R ballast domain (P2X7BD, residues 395–595) (domain or fragment, UniProt Q99572 395-595, looked up)
chain: KPTLKYVSFVDESHIRMVNQQLLGRSLQDVKGQEVPRPAMDFTDLSRLPLALHDTPPIPGQPEEIQLLRKEATPRSRDSPVWCQCGSCLPSQLPESHRCLEELCCRKKPGACITTSELFRKLVLSRHVLQFLLLYQEPLLALDVDSTNSRLRHCAYRCYATWRFGSQDMADFAILPSCCRWRIRKEFPKSEGQYSGFKSPY
stoichiometry N (SEC-SAXS): 3

From paper PMC9574498 (The Journal of Biological Chemistry, 2022)
